# B1: 125smIgG2 (Fc fusion)
# chain: QLQLVESGGGLVQAGGSLRLSCAASGGTISAYAMGWFRQAPGKDREFVAGISWTTSSAYYTDSVKGRFTISRDFAKNTVYLQMNSLKPEDTAVYYCNDRVSDTVGFGSWGQGTQVTVSSPRVPITQNPCPPLKECPPCAAPDLLGGPSVFIFPPKIKDVLMISLSPMVTCVVVDVSEDDPDVQISWFVNNVEVHTAQTQTHREDYNSTLRVVSALPIQHQDWMSGKEFKCKVNNRALPSPIEKTISKPRGPVRAPQVYVLPPPAEEMTKKEFSLTCMITGFLPAEIAVDWTSNGRTEQNYKNTATVLDSDGSYFMYSKLRVQKSTWERGSLFACSVVHEGLHNHLTTKTISRSLGK
# What was measured:
# [1] = molecular target: T1, pTT5hIgG1-S5 fusion protein (hepatitis B virus (HBV subtype B)); assay: ELISA, fusion protein coated at 1 µg/mL, antibody at 1 µg/ml
# T1 construct: also called S5 (Loop2-Cter); Loop2-Cter
# [2] = molecular target: T2, pTT5hIgG1-S4 fusion protein (hepatitis B virus (HBV subtype B)); assay: as above
# T2 construct: also called S4 (Cter); Cter
binder,measurement,setting,value
B1,binding result,[1],binds
same,binding result,[2],binds

# From US20250101083A1 (XIAMEN UNIVERSITY, published 2025)
